The source of these data is patent publication US20260062455A1 (INSTITUT PASTEUR, published 2026).

By Kd is commonly meant the constant that tells how readily two partners part at equilibrium. The low end stands for higher affinity, the high end for lower affinity.

Assay [1] has as its target T1, MFSD2ACO expressed in HEK-293T.17 cells (LPC-analog transport assay) (human, UniProt Q8NA29 1-543).
T1 chain: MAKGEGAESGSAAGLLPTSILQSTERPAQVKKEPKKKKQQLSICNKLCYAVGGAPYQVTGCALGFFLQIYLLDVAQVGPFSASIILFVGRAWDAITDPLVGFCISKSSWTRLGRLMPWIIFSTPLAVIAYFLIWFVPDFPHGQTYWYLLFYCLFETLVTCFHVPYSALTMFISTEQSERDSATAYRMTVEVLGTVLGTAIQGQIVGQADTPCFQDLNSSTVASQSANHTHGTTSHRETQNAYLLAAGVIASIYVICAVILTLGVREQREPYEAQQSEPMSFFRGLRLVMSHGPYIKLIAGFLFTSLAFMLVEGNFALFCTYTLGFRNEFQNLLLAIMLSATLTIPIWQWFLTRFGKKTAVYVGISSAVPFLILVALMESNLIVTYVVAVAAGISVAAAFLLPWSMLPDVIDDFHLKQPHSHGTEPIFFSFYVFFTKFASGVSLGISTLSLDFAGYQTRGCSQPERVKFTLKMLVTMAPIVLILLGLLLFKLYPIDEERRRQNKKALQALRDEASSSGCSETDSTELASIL
The assay can be described thus: cell-based or functional assay.

Assay [2] has as its target T2, GFP-MFSD2ACO (N-terminal FLAG-tag/GFP fusion of MFSD2ACO, detergent-solubilised lysate) (human, UniProt Q8NA29 1-543).
T2 construct: The methods say only 'MFSD2A'; also called MFSD2A-GFP; not shown: N-terminal FLAG-tag, GFP and PreScission protease cleavage site
T2 chain: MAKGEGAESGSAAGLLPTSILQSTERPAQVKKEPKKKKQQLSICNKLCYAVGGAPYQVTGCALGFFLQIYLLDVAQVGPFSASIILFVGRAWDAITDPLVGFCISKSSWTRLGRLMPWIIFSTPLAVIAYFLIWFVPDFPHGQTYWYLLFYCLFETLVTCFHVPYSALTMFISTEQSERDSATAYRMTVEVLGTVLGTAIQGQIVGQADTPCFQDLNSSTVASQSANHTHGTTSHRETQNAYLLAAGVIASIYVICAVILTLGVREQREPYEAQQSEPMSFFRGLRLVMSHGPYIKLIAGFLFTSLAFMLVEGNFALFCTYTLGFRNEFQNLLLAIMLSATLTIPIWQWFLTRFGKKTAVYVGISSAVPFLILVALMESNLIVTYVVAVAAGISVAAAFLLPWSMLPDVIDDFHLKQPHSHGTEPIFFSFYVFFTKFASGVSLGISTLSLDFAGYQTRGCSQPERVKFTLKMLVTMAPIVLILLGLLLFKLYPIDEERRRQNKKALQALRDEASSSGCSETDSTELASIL
Put plainly: titration of SYNC2-mCherry lysate onto GFP-MFSD2A captured on anti-FLAG resin in DDM/CHS at 4 °C; eluted mCherry/GFP fluorescence fitted to a quadratic binding equation. As for the experimental part: SYNC2 binding to MFSD2A was assayed in clear lysates of detergent-solubilized HEK-293F cells expressing mCherry (C-terminal) and GFP (N-terminal) fusion constructs of SYNC2 and MFSD2A, respectively, that enable protein quantification. Clear cells lysates were obtained by 1-hour solubilization in lysis buffer containing 50 mM HEPES pH 7.4, 200 mM NaCl, 5% v/v glycerol, 1 mM EDTA, protease-inhibitor cocktail, 1% DDM, and 0.2% CHS, followed by centrifugation (3,800g, 20 min). SYNC2-mCherry and GFP-MFSD2A protein concentrations in lysates were determined using purified standards in a micro-plate reader (CLARIOstar-Plus) set at 570/620 and 470/514 (λexcitation/λemission), respectively. MFSD2A-GFP lysate at 500 nM was incubated with 2 ml anti-FLAG M2 resin for 1 hour, fractionated in 8 equal parts placed on gravity columns and washed with 1 ml of wash buffer (50 mM HEPES pH 7.4, 200 mM NaCl, 5% (v/v) glycerol, 0.03% DDM, and 0.006% CHS). SYNC2-mCherry was added from a calibrated stock at 2 μM, and equilibrated for 1 hour. […] Eluted protein was transferred to a 96-well flat-bottom black plate for quantification of GFP and mCherry fluorescence. SYNC-mCherry fluorescence background was determined from samples with anti-FLAG resin that lack MFSD2A-GFP bound. SYNC2-mCherry subtracted fluorescence was fitted to a quadratic binding equation using Sigma Plot (Systat).

The target of assay [3] is T3, MFSD2ACO (thermostable consensus MFSD2A mutant), purified in detergent (human, UniProt Q8NA29 1-543).
T3 construct: Full-length transporter expressed in HEK-293F with an N-terminal FLAG-tag, GFP and PreScission site; also called MFSD2A consensus; MFSD2A consensus design
T3 chain: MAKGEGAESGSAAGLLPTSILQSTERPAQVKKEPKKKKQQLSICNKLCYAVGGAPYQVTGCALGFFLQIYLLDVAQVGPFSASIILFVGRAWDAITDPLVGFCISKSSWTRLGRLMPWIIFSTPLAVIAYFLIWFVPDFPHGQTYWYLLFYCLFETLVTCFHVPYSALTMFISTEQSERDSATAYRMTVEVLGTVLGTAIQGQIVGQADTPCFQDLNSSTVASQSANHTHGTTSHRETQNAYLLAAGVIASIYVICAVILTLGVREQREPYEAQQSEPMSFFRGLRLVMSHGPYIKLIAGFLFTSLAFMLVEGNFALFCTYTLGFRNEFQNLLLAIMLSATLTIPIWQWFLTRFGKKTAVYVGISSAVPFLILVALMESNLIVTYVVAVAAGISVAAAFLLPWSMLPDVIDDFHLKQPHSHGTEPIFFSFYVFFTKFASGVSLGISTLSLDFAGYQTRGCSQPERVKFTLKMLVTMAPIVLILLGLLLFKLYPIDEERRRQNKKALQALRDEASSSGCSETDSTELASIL
The assay can be described thus: cryo-EM 2D classes and 3D reconstructions of the purified complex; 3.6 Å map of SYNC2SU-CO bound to MFSD2ACO. The text has this: For cryo-EM structural determination of MFSD2ACO-SYNC2CO complex, the inventors used SYNC2CO-C43S (SYNC2_CO-C43S) mutant to avoid detachment of surface and transmembrane subunits upon binding to MFSD2ACO. […] However, high flexibility within the complex precluded high-resolution 3D reconstructions. To overcome this problem, the inventors used a smaller box size in order to extract individual components, effectively increasing particle number and sample homogeneity, as it was recently shown in cryo-EM structure determination of human CD20 bound to divalent Fab fragments (Kumar et al., 2020). This approach enabled particle averaging over the three MFSD2ACO molecules in the complex, yielding a cryo-EM map at an overall 3.6 Å resolution of SYNC2_SU-CO bound to MFSD2ACO (FIG. 1F; Table 1; FIG. 7, 8). […] Trimeric SYNC2TM in the post-fusion state was not resolved in 3D cryo-EM reconstructions, likely due to lower number of particles, as well as alignment problems of micelles containing only three flexible transmembrane helices.
MFSD2ACO-SYNC2_CO-C43S purified complex was applied to glow-discharged Au 200 mesh Quantifoil R1.2/1.3 holey carbon grids (Quantifoil), and vitrified using Vitrobot Mark IV (ThermoFisher). Typically, 4 μl of sample at 1.2-1.5 mg/ml were applied to the grids, and the Vitrobot chamber was maintained at 100% humidity and 4° C. […]

B1: SYNC2SU-CO (soluble thermostable consensus SYNC2 fragment with C43S), purified, C-terminal EPEA-tag (ligand)
chain: AYRHPDFPLLEKAQQLLQSTGSPYSTNSWLCTSSSTETPGTAYPASPREWTSIEAELHISYRWDPNLKGLMRPANSLLSTVKQDFPDIRQKPPIFGPIFTNINLMGIAPICVTAKRKNGTNVGTLPSTVCNVTFTVDPNQQTYQTYTHNQFRHQPRFPKPPNITFPQGTLLDKSTRFCQGRPSSCSTRNFWFRPADYNQCLQISNLSSTAEWVLLDQTRNSLFWENKTKGANQSQTPCVQVLAGMTIATSYLGISAVSEFFGTSLTPLFHFHISTCLKTQGAFYICGQSIHQCLPSNWTGTCTIGYVTPDIFIAPEPEA
Take B1: in assay [1], the “half-maximal inhibitory concentration (IC50) of Na+-dependent LPCNBD transport in cells” value is approximately 200 nM.

B2: SYNC2CO-C43S-mCherry (C-terminal mCherry fusion, detergent-solubilised lysate) (ligand)
chain: AYRHPDFPLLEKAQQLLQSTGSPYSTNSWLCTSSSTETPGTAYPASPREWTSIEAELHISYRWDPNLKGLMRPANSLLSTVKQDFPDIRQKPPIFGPIFTNINLMGIAPICVTAKRKNGTNVGTLPSTVCNVTFTVDPNQQTYQTYTHNQFRHQPRFPKPPNITFPQGTLLDKSTRFCQGRPSSCSTRNFWFRPADYNQCLQISNLSSTAEWVLLDQTRNSLFWENKTKGANQSQTPCVQVLAGMTIATSYLGISAVSEFFGTSLTPLFHFHISTCLKTQGAFYICGQSIHQCLPSNWTGTCTIGYVTPDIFIAPGNLSLPIPIYGNSPLPRVRRAIHFIPLLAGLGILAGTGTGIAGITKASLTYSQLSKEIANNIDTMAKALTTMQEQIDSLAAVVLQNRRGLDMLTAAQGGICLALDEKCCFWVNQSGKVQDNIRQLLNQASSLRERATQGWLNWEGTWKWFSWVLPFIGPLVSLLLLLLFGPCLLNLITQFVSSRLQAIKLQTNLSAGRHPRNIQESPF
notes: The methods say only 'SYNC2'; also called SYNC2-mCherry; SYNC-mCherry; not shown: C-terminal mCherry
Take B2: the equilibrium dissociation constant (Kd) in assay [2] is approximately 100 nM.

B3: SYNC2CO-C43S (thermostable consensus SYNC2 mutant with additional mutation C43S), purified in detergent (ligand)
chain: AYRHPDFPLLEKAQQLLQSTGSPYSTNSWLCTSSSTETPGTAYPASPREWTSIEAELHISYRWDPNLKGLMRPANSLLSTVKQDFPDIRQKPPIFGPIFTNINLMGIAPICVTAKRKNGTNVGTLPSTVCNVTFTVDPNQQTYQTYTHNQFRHQPRFPKPPNITFPQGTLLDKSTRFCQGRPSSCSTRNFWFRPADYNQCLQISNLSSTAEWVLLDQTRNSLFWENKTKGANQSQTPCVQVLAGMTIATSYLGISAVSEFFGTSLTPLFHFHISTCLKTQGAFYICGQSIHQCLPSNWTGTCTIGYVTPDIFIAPGNLSLPIPIYGNSPLPRVRRAIHFIPLLAGLGILAGTGTGIAGITKASLTYSQLSKEIANNIDTMAKALTTMQEQIDSLAAVVLQNRRGLDMLTAAQGGICLALDEKCCFWVNQSGKVQDNIRQLLNQASSLRERATQGWLNWEGTWKWFSWVLPFIGPLVSLLLLLLFGPCLLNLITQFVSSRLQAIKLQTNLSAGRHPRNIQESPF
modifications: N-glycans at N133, N146, N177, N220, N241, N247 and N312 (all seven predicted sites carry glycans in the structure)
notes: Trimeric full-length envelope protein; also called SYNC2 consensus C43S; SYNC2SU-CO (its surface subunit as resolved in the cryo-EM map)
For B3, the binding result in assay [3] is listed as “binds”.
